Assay results taken from the domain aggregation screens of Martell et al. (2025).

test: soluble fraction after stress (log2 fold change); higher = more stays soluble; pooled small domains, quantitative proteomics; settings: stress: 50 degC
Method in brief: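 After stress at 50°C, the amount of each protein still soluble was measured. This was done on pooled custom libraries of small protein domains, using high-throughput quantitative proteomics. The figure given is a base-two log fold change and stands for aggregation propensity, with higher values meaning more protein stays in solution.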

| Sequence | soluble fraction (log2) |
| --- | --- |
| HMLPVLEIGTMIRIIRQPHFGTIARVVALPEELTKVESETLVRILDAEFDDGTRVRIPRANVEVIE | -1.25 |
| HMGYDVAEVKFRLIKLLRDSKIGISGVEISERLGINRVTMTKYLNIFSAEGVIGEKNIGNVNLWFVYEGIE | -1.68 |
| HMGQDLSYYIKIVQNQQPVDPLTGEPKVLDYGEVIRQAQILQMLDTGDLDRDKAIGQLSMKDAL | 0.0152 |
| HMGAQPLIEPLSERELEVLALIAEGLTNAEIGRRLFIATGTVKRHVNTIYGKLDVHGRIEAIARARDLHLI | -0.276 |
| HMDNWLSGLAVEADRMILTQPGEVFDRLSRAFEATLIRRALASTGGRRIEAAHLLGIGRNTITRKIQDLGL | -2.49 |
| HMAVRNTKQKQLVLSLLKNSGRPMTAGEIYRLAVQQYPNIAKSTVYRNLENLVSRGEVSQGMHQNGESFYS | -0.299 |
| HMEVKRANRKERFLEALPYQFSRQDYLNIADKNKIPHKTAEGYITKFVDAGLIHREAHNNYTNPTKA | 0.146 |
| HMRHYVLKENNGVIAIYKVNQENEAVFKENTQIQVQYLPEVDLINLKKGIYAIGEEKLNSILEDF | -0.613 |
| HMEDYYKILGVSKDASIDDIKKSYRKLSLQNHPDRNKSPQASENFAKINSAYEVLSDQRKKRQYDMQQSM | 0.0897 |
| HMIEKGSDALEKELRKNNLSINEFLTNKNIDIILDELKLKDIDDLYVNIALGKYTPNQIIKIVNK | 0.237 |
| HMKYNYEAQQSDELSLVKGSRIHVLEKSSDGWWKGEIDNVVGWFPS | -0.205 |
| HMRNLYEILGVSKDAPQGEIKSAYRKLAKTYHPDLNPNNEKAAELFKEINQAYEVLSDETKRRHYDQFGEA | 0.312 |
| HMSKPILSFVDPEKDPSHYVKRYITEETYKDWFSEHFPDYTLYEGIGITQEEYRNIVNELTKP | -0.493 |
| HMNGKTIEVPDITEKSIAEAQLILNQKKLRYNVVDSTRFDPAYLPFSVLTQEPEAGDEVKKNRTIYITLNP | -0.0871 |
| HMFQPFFENLRKASIPVSLREYLTFLEGMKKGLVTYDIEAFYFLARAAMVKDERNIDKFDRAFSATFKG | -0.287 |
| HMLSVKEQTYQIIKEKILNQEYPAGARININELAEELGISNSPIREALSLLEQQGLVISNRSSGATVT | 0.00507 |
| HMEQVQQIPIEELFPFKEHPFKVLDDEAMQRTVESVAQYGVLAPLIARPRPEGGYEIISGHRRQHAAELYR | -0.0852 |
| HMKHSLNHLGLWLLPELSRRDIQLREFAHLLGTTSQGLSDLLRGQRFSSHTLAQWQLRFQEKLDEIDQAS | -1.11 |
| HMSNNENSILEKLNSFSGKKIKVSHTIGSLAARLDEYPKIKMWLYKRIRENSINEQAYKYLIFIIERKVR | -1.2 |

| Sequence | soluble fraction (log2) |
| --- | --- |
| HMATVTVPNLKGMTPSGAESALAELNLKGAVGDSVESNDVENGKVASQDQAAGSDAKEGDTITYHLSS | 0.0967 |
| HMREEMYGLIGFITTSEVTDTFGQMEIKLENEPEMRINVRTNPGESLARGDAAKIISFNNSNGTFLVELTK | -0.474 |
| HMEPDEESVRLKEEILSRIDYWHTTMPYMGTRKLAAKLRTEGYAVGRKLVRTYMREMGIHAVYP | -0.132 |
| HMQTTDTGAIETIVDELMAANPDKVEAYRGGKTGLQGFFMGQVMKQLGGQGNPKVISAIVTEKLE | ≥ 0.62 |
| HMLELTVSDKMARLMAWRNRRRVNLSDQELHRIAAAPKQSPESILKMLPGFLQDSVPEIWAELTGGRP | -0.192 |
| HMQNYLEFIGNELKALTSIPSPSGYTKDVAAYLMKTLSDMGYEPQLSNKGNVFVTIGGEGNPLVLAAHVD | -0.0984 |
| HMDDTRLLSEIGLSQRVLNALRARGIERVGQVLAMRPDQLLGIRNFGPRALQELRERLQENGYTEGPLFSG | 0.309 |
| HMIEEIPYSQFMSMLEEGKIDKAEIYQDSIIFSTKPDEQGKAGYYSIAYMKDNVLADRLYDAGVEFTPII | -0.156 |
| HMEEQKYEYHLGDVVYLGVDKYEILGITNNIVTLYDPEFPLLNKQLDFDEFEKRVKDNYANEHLKVT | -0.429 |
| HMKMQPVISQGVLYINNVTDVRTIEVFDISGRIVADAAASTTVNIAHLNEGPYIVKVTTVNGIESIKILNK | -0.223 |
| HMKTDLQIQQDVMAELKWEPKVNAAHIGVEVKHGVVTLSGHVDSFAEKWNAEQAAKRVAGVKFIAIELDV | -1.67 |
| HMVVVMEKNASSAEIEQVQERLRQAGFKIHLSQGVERTIIGAIGDRSQVDLGFLEALPGVEKVVPIMK | 0.0845 |
| HMGAVFEFIMEEEEPERIDKLLSSALPDLSRSYLQKLVKEGAVLVNKKEVKPNHKVNPGDVVEISVPEPE | 0.18 |
| HMDKFTYVVKKEDEQYQIKDILRHNFTFSSRLRKKLKQNNSIFLNGAETVGWATPKEGDIISVRLP | -0.433 |
| HMQISMQNIASVKIDDLSDEQIQEFSTKYTAAGYSFPDVENVAKQKGMPSSEIEKLRQRVLTAQNTQEK | -0.163 |
| HMSNETKSAILNFAEKHHDFNIDDLFESLSKSMDINRSSLLWHLFKLVNSNVLIRTGRGMYAKV | -1.89 |
| HMEQKELAPLVPQEDGSVKLTNLAGYSMREVAAALEGGNLSLIPIGSGTSWKQDPAPGTVLQPGNTVTVYF | 0.00354 |
| HMNNENELSSIISKVLEENPAEKERFLNGEKKLAGFFMGKIMKATKGTADPKKAAQLLNEIL | 0.295 |
